Source: US20130143798A1 (Novo Nordisk, published 2013)
Numbered stars: 1 amine (or outer) side, 2 acyl side, 3 side chain; on linkers, the order of the positions; unused ones are H or OH. Side chains are listed from the residue outwards. Ends that are not written are not given here. * marks the point of attachment. C18 diacid = O=C(O)CCCCCCCCCCCCCCCCC(=O)*; γGlu = O=C(O)[C@H](CCC(=O)[*:2])N[*:1]; AEEA = NCCOCCOCC(=O)O

B1: N^ε24-([2-[2-[2-[[2-[2-[2-[[(4S)-5-hydroxy-4-[(18-hydroxy-18-oxooctadecanoyl)amino]-5-oxopentanoyl]amino]ethoxy]ethoxy]acetyl]amino]ethoxy]ethoxy]acetyl])[Glu^1 … (peptide)
peptide: HSQGTFTSDYSKYLDEKAAQEFVK([AEEA-AEEA-γGlu-C18 diacid])WLLNT-NH2
modifications: N-terminus assumed
SMILES: CC(C)C[C@H](NC(=O)[C@H](Cc1ccc(O)cc1)NC(=O)[C@H](CCCCN)NC(=O)[C@H](CO)NC(=O)[C@H](Cc1ccc(O)cc1)NC(=O)[C@H](CC(=O)O)NC(=O)[C@H](CO)NC(=O)[C@@H](NC(=O)[C@H](Cc1ccccc1)NC(=O)[C@@H](NC(=O)CNC(=O)[C@H](CCC(N)=O)NC(=O)[C@H](CO)NC(=O)[C@@H](N)Cc1c[nH]cn1)[C@@H](C)O)[C@@H](C)O)C(=O)N[C@@H](CC(=O)O)C(=O)N[C@@H](CCC(=O)O)C(=O)N[C@@H](CCCCN)C(=O)N[C@@H](C)C(=O)N[C@@H](C)C(=O)N[C@@H](CCC(N)=O)C(=O)N[C@@H](CCC(=O)O)C(=O)N[C@@H](Cc1ccccc1)C(=O)N[C@H](C(=O)N[C@@H](CCCCNC(=O)COCCOCCNC(=O)COCCOCCNC(=O)CC[C@H](NC(=O)CCCCCCCCCCCCCCCCC(=O)O)C(=O)O)C(=O)N[C@@H](Cc1c[nH]c2ccccc12)C(=O)N[C@@H](CC(C)C)C(=O)N[C@@H](CC(C)C)C(=O)N[C@@H](CC(N)=O)C(=O)N[C@H](C(N)=O)[C@@H](C)O)C(C)C
B2: N^ε16-([2-[2-[2-[[2-[2-[2-[[(4S)-5-hydroxy-4-[(18-hydroxy-18-oxooctadecanoyl)amino]-5-oxopentanoyl]amino]ethoxy]ethoxy]acetyl]amino]ethoxy]ethoxy]acetyl])[Lys^1 … (peptide)
peptide: HSQGTFTSDYSKYLDK([AEEA-AEEA-γGlu-C18 diacid])KRAQEFVQWLLNT-NH2
modifications: N-terminus assumed
SMILES: CC(C)C[C@H](NC(=O)[C@H](Cc1ccc(O)cc1)NC(=O)[C@H](CCCCN)NC(=O)[C@H](CO)NC(=O)[C@H](Cc1ccc(O)cc1)NC(=O)[C@H](CC(=O)O)NC(=O)[C@H](CO)NC(=O)[C@@H](NC(=O)[C@H](Cc1ccccc1)NC(=O)[C@@H](NC(=O)CNC(=O)[C@H](CCC(N)=O)NC(=O)[C@H](CO)NC(=O)[C@@H](N)Cc1c[nH]cn1)[C@@H](C)O)[C@@H](C)O)C(=O)N[C@@H](CC(=O)O)C(=O)N[C@@H](CCCCNC(=O)COCCOCCNC(=O)COCCOCCNC(=O)CC[C@H](NC(=O)CCCCCCCCCCCCCCCCC(=O)O)C(=O)O)C(=O)N[C@@H](CCCCN)C(=O)N[C@@H](CCCNC(=N)N)C(=O)N[C@@H](C)C(=O)N[C@@H](CCC(N)=O)C(=O)N[C@@H](CCC(=O)O)C(=O)N[C@@H](Cc1ccccc1)C(=O)N[C@H](C(=O)N[C@@H](CCC(N)=O)C(=O)N[C@@H](Cc1c[nH]c2ccccc12)C(=O)N[C@@H](CC(C)C)C(=O)N[C@@H](CC(C)C)C(=O)N[C@@H](CC(N)=O)C(=O)N[C@H](C(N)=O)[C@@H](C)O)C(C)C
B3: N^[24-([2-[2-[2-[[2-[2-[2-[[(4S)-5-hydroxy-4-[(18-hydroxy-18-oxooctadecanoyl)amino]-5-oxopentanoyl]amino]ethoxy]ethoxy]acetyl]amino]ethoxy]ethoxy]acetyl])[Lys^1 … (peptide)
peptide: HSQGTFTSDYSKYLDSKRAQEFVK([AEEA-AEEA-γGlu-C18 diacid])WLLNT-NH2
modifications: N-terminus assumed
SMILES: CC(C)C[C@H](NC(=O)[C@H](Cc1ccc(O)cc1)NC(=O)[C@H](CCCCN)NC(=O)[C@H](CO)NC(=O)[C@H](Cc1ccc(O)cc1)NC(=O)[C@H](CC(=O)O)NC(=O)[C@H](CO)NC(=O)[C@@H](NC(=O)[C@H](Cc1ccccc1)NC(=O)[C@@H](NC(=O)CNC(=O)[C@H](CCC(N)=O)NC(=O)[C@H](CO)NC(=O)[C@@H](N)Cc1c[nH]cn1)[C@@H](C)O)[C@@H](C)O)C(=O)N[C@@H](CC(=O)O)C(=O)N[C@@H](CO)C(=O)N[C@@H](CCCCN)C(=O)N[C@@H](CCCNC(=N)N)C(=O)N[C@@H](C)C(=O)N[C@@H](CCC(N)=O)C(=O)N[C@@H](CCC(=O)O)C(=O)N[C@@H](Cc1ccccc1)C(=O)N[C@H](C(=O)N[C@@H](CCCCNC(=O)COCCOCCNC(=O)COCCOCCNC(=O)CC[C@H](NC(=O)CCCCCCCCCCCCCCCCC(=O)O)C(=O)O)C(=O)N[C@@H](Cc1c[nH]c2ccccc12)C(=O)N[C@@H](CC(C)C)C(=O)N[C@@H](CC(C)C)C(=O)N[C@@H](CC(N)=O)C(=O)N[C@H](C(N)=O)[C@@H](C)O)C(C)C
B4: N^ε24-([2-[2-[2-[[2-[2-[2-[[(4S)-5-hydroxy-4-[(18-hydroxy-18-oxooctadecanoyl)amino]-5-oxopentanoyl]amino]ethoxy]ethoxy]acetyl]amino]ethoxy]ethoxy]acetyl])[Glu^1 … (peptide)
peptide: HSQGTFTSDYSKYLDERRAQDFVK([AEEA-AEEA-γGlu-C18 diacid])WLLAT-NH2
modifications: N-terminus assumed
SMILES: CC(C)C[C@H](NC(=O)[C@H](CC(C)C)NC(=O)[C@H](Cc1c[nH]c2ccccc12)NC(=O)[C@H](CCCCNC(=O)COCCOCCNC(=O)COCCOCCNC(=O)CC[C@H](NC(=O)CCCCCCCCCCCCCCCCC(=O)O)C(=O)O)NC(=O)[C@@H](NC(=O)[C@H](Cc1ccccc1)NC(=O)[C@H](CC(=O)O)NC(=O)[C@H](CCC(N)=O)NC(=O)[C@H](C)NC(=O)[C@H](CCCNC(=N)N)NC(=O)[C@H](CCCNC(=N)N)NC(=O)[C@H](CCC(=O)O)NC(=O)[C@H](CC(=O)O)NC(=O)[C@H](CC(C)C)NC(=O)[C@H](Cc1ccc(O)cc1)NC(=O)[C@H](CCCCN)NC(=O)[C@H](CO)NC(=O)[C@H](Cc1ccc(O)cc1)NC(=O)[C@H](CC(=O)O)NC(=O)[C@H](CO)NC(=O)[C@@H](NC(=O)[C@H](Cc1ccccc1)NC(=O)[C@@H](NC(=O)CNC(=O)[C@H](CCC(N)=O)NC(=O)[C@H](CO)NC(=O)[C@@H](N)Cc1c[nH]cn1)[C@@H](C)O)[C@@H](C)O)C(C)C)C(=O)N[C@@H](C)C(=O)N[C@H](C(N)=O)[C@@H](C)O
B5: (N^ε24-([2-[2-[2-[[2-[2-[2-[[(4S)-5-hydroxy-4-[(18-hydroxy-18-oxooctadecanoyl)amino]-5-oxopentanoyl]amino]ethoxy]ethoxy]acetyl]amino]ethoxy]ethoxy]acetyl])[Gln^ … (peptide)
peptide: HSQGTFTSDYSKYLDSQRAQDFVK([AEEA-AEEA-γGlu-C18 diacid])WLVKTGP-NH2
modifications: N-terminus assumed
SMILES: CC(C)C[C@H](NC(=O)[C@H](Cc1ccc(O)cc1)NC(=O)[C@H](CCCCN)NC(=O)[C@H](CO)NC(=O)[C@H](Cc1ccc(O)cc1)NC(=O)[C@H](CC(=O)O)NC(=O)[C@H](CO)NC(=O)[C@@H](NC(=O)[C@H](Cc1ccccc1)NC(=O)[C@@H](NC(=O)CNC(=O)[C@H](CCC(N)=O)NC(=O)[C@H](CO)NC(=O)[C@@H](N)Cc1c[nH]cn1)[C@@H](C)O)[C@@H](C)O)C(=O)N[C@@H](CC(=O)O)C(=O)N[C@@H](CO)C(=O)N[C@@H](CCC(N)=O)C(=O)N[C@@H](CCCNC(=N)N)C(=O)N[C@@H](C)C(=O)N[C@@H](CCC(N)=O)C(=O)N[C@@H](CC(=O)O)C(=O)N[C@@H](Cc1ccccc1)C(=O)N[C@H](C(=O)N[C@@H](CCCCNC(=O)COCCOCCNC(=O)COCCOCCNC(=O)CC[C@H](NC(=O)CCCCCCCCCCCCCCCCC(=O)O)C(=O)O)C(=O)N[C@@H](Cc1c[nH]c2ccccc12)C(=O)N[C@@H](CC(C)C)C(=O)N[C@H](C(=O)N[C@@H](CCCCN)C(=O)N[C@H](C(=O)NCC(=O)N1CCC[C@H]1C(N)=O)[C@@H](C)O)C(C)C)C(C)C
B6: N^ε24-([2-[2-[2-[[2-[2-[2-[[(4S)-5-hydroxy-4-[(18-hydroxy-18-oxooctadecanoyl)amino]-5-oxopentanoyl]amino]ethoxy]ethoxy]acetyl]amino]ethoxy]ethoxy]acetyl])[Lys^1 … (peptide)
peptide: HSQGTFTSDYSKYLDSKAAQEFVK([AEEA-AEEA-γGlu-C18 diacid])WLLNT-NH2
modifications: N-terminus assumed
SMILES: CC(C)C[C@H](NC(=O)[C@H](Cc1ccc(O)cc1)NC(=O)[C@H](CCCCN)NC(=O)[C@H](CO)NC(=O)[C@H](Cc1ccc(O)cc1)NC(=O)[C@H](CC(=O)O)NC(=O)[C@H](CO)NC(=O)[C@@H](NC(=O)[C@H](Cc1ccccc1)NC(=O)[C@@H](NC(=O)CNC(=O)[C@H](CCC(N)=O)NC(=O)[C@H](CO)NC(=O)[C@@H](N)Cc1c[nH]cn1)[C@@H](C)O)[C@@H](C)O)C(=O)N[C@@H](CC(=O)O)C(=O)N[C@@H](CO)C(=O)N[C@@H](CCCCN)C(=O)N[C@@H](C)C(=O)N[C@@H](C)C(=O)N[C@@H](CCC(N)=O)C(=O)N[C@@H](CCC(=O)O)C(=O)N[C@@H](Cc1ccccc1)C(=O)N[C@H](C(=O)N[C@@H](CCCCNC(=O)COCCOCCNC(=O)COCCOCCNC(=O)CC[C@H](NC(=O)CCCCCCCCCCCCCCCCC(=O)O)C(=O)O)C(=O)N[C@@H](Cc1c[nH]c2ccccc12)C(=O)N[C@@H](CC(C)C)C(=O)N[C@@H](CC(C)C)C(=O)N[C@@H](CC(N)=O)C(=O)N[C@H](C(N)=O)[C@@H](C)O)C(C)C
B7: N^ε24-([2-[2-[2-[[(4S)-5-hydroxy-4-[(18-hydroxy-18-oxooctadecanoyl)amino]5-oxopentanoyl]amino]ethoxy]ethoxy]acetyl]amino]ethoxy]ethoxy]acetyl]])[Lys^17,Lys^18,G … (peptide)
peptide: HSQGTFTSDYSKYLDSKKAQEFVK([AEEA-AEEA-γGlu-C18 diacid])WLLNT
B8: N^ε24-([2-[2-[2-[[2-[2-[2-[[(4S)-5-hydroxy-4-[(18-hydroxy-18-oxooctadecanoyl)amino]-5-oxopentanoyl]amino]ethoxy]ethoxy]acetyl]amino]ethoxy]ethoxy]acetyl])[Glu^1 … (peptide)
peptide: HSQGTFTSDYSKYLDEKRAQEFVK([AEEA-AEEA-γGlu-C18 diacid])WLLNT-NH2
modifications: N-terminus assumed
SMILES: CC(C)C[C@H](NC(=O)[C@H](Cc1ccc(O)cc1)NC(=O)[C@H](CCCCN)NC(=O)[C@H](CO)NC(=O)[C@H](Cc1ccc(O)cc1)NC(=O)[C@H](CC(=O)O)NC(=O)[C@H](CO)NC(=O)[C@@H](NC(=O)[C@H](Cc1ccccc1)NC(=O)[C@@H](NC(=O)CNC(=O)[C@H](CCC(N)=O)NC(=O)[C@H](CO)NC(=O)[C@@H](N)Cc1c[nH]cn1)[C@@H](C)O)[C@@H](C)O)C(=O)N[C@@H](CC(=O)O)C(=O)N[C@@H](CCC(=O)O)C(=O)N[C@@H](CCCCN)C(=O)N[C@@H](CCCNC(=N)N)C(=O)N[C@@H](C)C(=O)N[C@@H](CCC(N)=O)C(=O)N[C@@H](CCC(=O)O)C(=O)N[C@@H](Cc1ccccc1)C(=O)N[C@H](C(=O)N[C@@H](CCCCNC(=O)COCCOCCNC(=O)COCCOCCNC(=O)CC[C@H](NC(=O)CCCCCCCCCCCCCCCCC(=O)O)C(=O)O)C(=O)N[C@@H](Cc1c[nH]c2ccccc12)C(=O)N[C@@H](CC(C)C)C(=O)N[C@@H](CC(C)C)C(=O)N[C@@H](CC(N)=O)C(=O)N[C@H](C(N)=O)[C@@H](C)O)C(C)C

Target: glucagon receptor (UniProt P47871 26-477, limits assumed)
Test: cell-based or functional assay

Chain of glucagon receptor (P47871 26-477 limits assumed): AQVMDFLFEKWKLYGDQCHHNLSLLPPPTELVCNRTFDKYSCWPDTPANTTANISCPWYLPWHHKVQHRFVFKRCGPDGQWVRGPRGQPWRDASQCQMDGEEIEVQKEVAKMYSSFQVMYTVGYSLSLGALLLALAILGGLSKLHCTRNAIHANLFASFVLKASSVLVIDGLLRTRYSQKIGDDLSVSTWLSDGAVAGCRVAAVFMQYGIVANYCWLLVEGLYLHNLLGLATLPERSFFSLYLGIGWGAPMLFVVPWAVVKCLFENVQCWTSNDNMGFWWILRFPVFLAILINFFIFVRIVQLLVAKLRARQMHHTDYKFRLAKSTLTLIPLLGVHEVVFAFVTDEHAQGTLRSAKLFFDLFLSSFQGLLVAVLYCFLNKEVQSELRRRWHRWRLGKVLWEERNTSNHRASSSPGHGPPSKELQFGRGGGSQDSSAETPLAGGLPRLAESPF

Binder | Assay (I) Glucagon [EC50]
B1 | 0.048 nM
B2 | 0.018 nM
B3 | 0.016 nM
B4 | 0.0235 nM
B5 | 0.942 nM
B6 | 0.033 nM
B7 | 0.019 nM
B8 | 0.015 nM
